These are literature values, as cited in publication PMC7130864.

In general, Kd refers to the equilibrium constant for the complex coming apart.

The target of the series is Kv1.3 (Homo sapiens) (UniProt P22001).
Sequence of UniProt P22001 (P22001 whole entry): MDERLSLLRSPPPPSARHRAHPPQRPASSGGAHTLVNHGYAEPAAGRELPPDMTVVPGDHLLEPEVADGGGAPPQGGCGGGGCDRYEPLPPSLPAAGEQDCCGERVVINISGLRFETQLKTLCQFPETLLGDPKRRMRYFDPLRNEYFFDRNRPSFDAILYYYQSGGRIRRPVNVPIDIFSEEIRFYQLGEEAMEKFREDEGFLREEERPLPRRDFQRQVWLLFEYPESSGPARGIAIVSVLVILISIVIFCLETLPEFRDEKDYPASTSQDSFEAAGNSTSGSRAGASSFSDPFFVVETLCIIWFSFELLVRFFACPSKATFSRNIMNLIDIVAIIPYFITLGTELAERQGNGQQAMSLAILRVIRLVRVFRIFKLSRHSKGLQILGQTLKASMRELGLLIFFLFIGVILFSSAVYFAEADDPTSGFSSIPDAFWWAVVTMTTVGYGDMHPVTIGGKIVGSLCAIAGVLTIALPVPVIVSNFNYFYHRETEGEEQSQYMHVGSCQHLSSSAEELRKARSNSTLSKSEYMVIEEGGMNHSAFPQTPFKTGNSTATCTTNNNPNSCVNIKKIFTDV

For the substance BmKTX (from UniProt Q9NII7), the Kd was 0.2 nM.
